The supplement of paper PMC10567573

B1: USP39 (parent)
chain: TLSEAYIQIWKRRDNDETNQQGA
B2: EDARADD (parent)
chain: VEKVLRRWVDEEWPKRERGDPSRH

Variants of: B1
Assay: protein stability index of a GFP-peptide fusion (GPS, HEK-293T) (PSI 1-6); higher = more stable
Conditions: c terminus: native
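Note: lentivirally expressed fusions sorted by FACS into six bins by GFP to DsRed ratio, PSI derived from sequencing read proportions per bin multiplied by bin number.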

Protein stability index: each site, then its substitutions
G22: T 3.66 | I 3.35 | W 2.45
I7: Y 2.18 | C 2.41 | V 2.72 | S 3.32
W10: L 2.96 | A 3.39
T18: V 2.56 | P 1.87 | C 1.69
Q20: K 2.14 | E 2.15
R12: P 2.07 | V 1.86 | E 2.65 | S 2.53
Q21: W 1.84 | N 3.81
Q8: H 2.24 | N 2.63
A5: E 2.75 | H 2.39 | L 2.29
E4: L 2.49 | K 2.4 | Y 2.04
A23: Y 3.58 | V 4.23 | W 2.94 | M 4.35 | S 3.94
N19: M 2.06 | G 3.69 | A 2.38
S3: C 2.38 | F 2.14 | R 2.78 | Y 1.98
E17: P 2.4 | T 1.9
N15: K 2.51 | M 1.86 | V 2.12
D16: F 1.51 | Y 2.9 | N 2.67
Y6: N 1.9 | H 3.07 | K 3.02
L2: P 2.6
T1: G 3.34 | C 2.34 | F 2.16 | M 2.66
I9: Y 3.19 | S 2.8
K11: V 1.67 | T 3.14 | D 1.58
R13: K 2.05 | V 1.97 | Y 1.56 | L 1.84

Variants of: B2
Assay: as above
Conditions: c terminus: a fixed tail appended

Protein stability index: each site, then its substitutions
G19: T 2.55 | N 2.41 | E 3.14 | K 2.79 | H 3.06 | Y 2.21 | S 2.8 | V 2.11 | M 2.54 | L 2.37 | R 2.64 | I 2.6 | P 2.89 | W 2.1 | D 3.1 | F 2.05 | C 2.52 | Q 2.73
D20: Q 2.5 | C 2.31 | P 2.04 | T 3.07 | A 3.45 | L 2.5 | E 2.63 | I 2.19 | K 3.07 | M 2.21 | H 2.81 | Y 2.63 | S 2.68 | F 2.35 | G 2.81 | N 2.94 | V 2.71 | W 2.61 | R 2.48
P14: M 2.62 | F 2.14 | D 2.39 | N 2.8 | R 3.06 | S 2.59 | L 2.13 | W 2.38 | C 3.5 | K 2.82 | A 2.31 | G 2.22 | V 2.92 | Y 2.32 | T 2.49 | E 2.05
E11: Y 2.09 | T 2.61 | A 2.73 | V 1.88 | F 2.16 | C 2.43 | N 3.19 | P 2.2 | W 1.96 | R 1.59 | S 2.71 | M 1.74 | G 3.1 | H 2.44 | K 2.08 | I 2.7 | D 3.28 | Q 3.05
P21: Y 2.34 | A 3.34 | D 3.57 | M 2.39 | V 2.19 | Q 3.07 | H 2.52 | G 3.02 | K 3.46 | T 2.68 | I 2.36 | F 2.28 | S 3.25 | R 2.4 | L 2.5 | W 1.89 | C 2.51 | E 3.51 | N 3.21
E17: P 1.68 | Y 2.55 | S 2.44 | I 2.19 | D 3.53 | R 2.85 | N 2.84 | F 2.01 | H 3.27 | T 2.45 | Q 2.99 | L 2.7 | G 3.32 | A 3.43 | V 1.96 | M 2.97 | W 1.83 | C 2.26 | K 2.96
H24: Q 3.56 | M 3.47 | E 2.48 | W 1.84 | F 2.61 | S 2.81 | I 2.3 | R 3.5 | L 3.12 | Y 2.41 | N 2.75 | G 2.71 | K 3.04 | A 2.59 | T 2.96 | C 2.13 | D 3.06 | V 2.93 | P 2.37
R16: M 2.7 | N 3.62 | V 2.49 | F 2.46 | S 2.58 | D 2.83 | E 3.66 | Q 2.1 | Y 2.14 | A 3.55 | C 2.67 | P 3 | T 3.46 | I 3.77 | K 2.48 | L 2.69
E12: D 2.45 | R 3.4 | F 1.78 | Y 1.81 | G 2.81 | A 1.87 | V 2.12 | S 2.36 | H 1.99 | T 2.27 | C 2.28 | M 2.08 | Q 1.95 | K 2.66 | I 2.06 | N 1.92 | P 2.4 | W 1.54
W13: C 3.21 | M 2.62 | A 3.42 | V 3.98 | T 3.38 | F 2.01 | S 3.54 | I 3.35 | N 3.86 | E 3.75 | P 3.75 | L 3.38 | Y 2.79 | D 3 | H 4 | Q 3.94 | R 3.96 | G 4.24
D10: N 2.71 | H 2.44 | I 2.65 | V 2.47 | R 2.62 | S 3.4 | Y 2.59 | T 2.74 | P 3.4 | K 2.4 | W 2.88 | M 2.26 | Q 2.73 | L 3.29
R18: L 2.81 | G 3.58 | A 2.29 | C 2.91 | E 3.73 | S 2.83 | Q 3.53 | P 3.34 | N 3.22 | M 3.15 | Y 2.44 | D 3.18 | T 2.96 | W 2.64 | I 3.12 | V 2.99 | K 1.81 | H 3.18 | F 2.5
R23: G 2.59 | P 3.56 | Q 2.96 | Y 2.87 | H 3.38 | D 3.05 | A 2.83 | N 2.81 | W 1.88 | K 2.83 | F 1.98 | M 2.45 | V 2.44 | S 3.07 | I 3.32 | E 3.71 | T 2.58 | L 2.66 | C 3
S22: C 2.2 | Q 2.96 | H 2.55 | V 2.66 | D 3.26 | K 2.46 | G 2.31 | F 1.83 | A 2.48 | T 2.93 | Y 2.52 | N 2.78 | E 3.63 | P 2.6 | R 3.51 | I 2.52 | M 2.17 | W 1.84
K15: I 2.82 | M 2.97 | F 2.74 | Q 2.24 | Y 2.31 | T 3.51 | V 2.29 | E 3.96 | R 2.42 | W 1.71 | H 3.55 | N 2.25 | A 2.72 | D 3.17 | L 2.41 | G 3.44 | C 3.18 | P 3.58 | S 3.33
